Test results: US6384189

Biological target: recombinant small latent TGF-β
Assay: cell-based or functional assay

| Fold Activation of Latent TGF-β over Baseline (soft agar NRK colony formation) (fold over baseline) | Substance |
| --- | --- |
| 2.5 | RFK (SEQ ID NO:18) (peptide) |
| 2 | TSP stripped of TGF-β activity (sTSP) (from UniProt P07996 19-1170) |
